Measured values reported in PMC6635019.
“And” between values parts separate entries of the source, which are not always exact repeats. Equal values may be shown once.

What was measured:
LL-37 (human) = assay: native MS
gramicidin A = assay: native MS

For LL-37 (peptide), the stoichiometry N (LL-37 (human)) was 2 and 3 and 4.
gramicidin A (peptide) was tested, and the stoichiometry N (gramicidin A) was 2.
